Reference: US20250101137A1 (TRUSTEES OF TUFTS COLLEGE, published 2025)

Columns and labels:
[1] = biological target: Botulinum neurotoxin serotype B (BoNT/B) holotoxin (Clostridium botulinum, UniProt P10844); assay: SPR; immobilised form of BoNT/B not stated
[2] = biological target: Botulinum neurotoxin serotype A1 (BoNT/A) holotoxin (Clostridium botulinum, UniProt P0DPI0); assay: method not stated

Binder | Kd [1] | Kd [2]
ciB-H11 (VHH) VHH: QVQLVETGGGLVQAGGSLRLSCAGSGRSFSAAVMGWFRQAPGKEREFVAALRQIIGSTHYADSVKGRFTISRDNAKNMLYLDMNSLKPTDTAAYYCTAGPPTMLDVSTDREYDTWGQGTQVTVSS | 0.26 nM | 
ciB-B9 (VHH) VHH: TGGGLVQAGGSLRLSCTASGRTSSFYALAWFRQGPGKEREFVAAIGWIDGSTRYTDSAKGRFTISRDAAKNTMYLQMNSLKPEDTAVYSCTARTQYGGSSADPKNYGYWGQGTQVTVSA | 23 nM | 
scFv #7 (scFv) scFv: SYELTQPPSMSVALGQTAKVTCQGDNLENFYVQWHQQKPGQAPVTVIFQDNKRPSGIPDRFSGSNSGNTATLTISGARTEDEADYYCQSGHSSIGGVFGSGTSLTVLGQPAAAGGGGSGGGGSGGGGSARQVQLQESGPSLVKPSQTLSLTCTVSGFSLTGNSVTWVRQAPGNVPEWLGGISRGGRTYYDTALKSRLSITRDTSKRQVSLSLSSVTTEDTAMYFCARSAYSTLYDYEYAADIYDWGPGLLVTVSSTSGAPVPYPDPLEPRAA |  | ~1 nM
